Experimental data: the nanobody polyreactivity screen of Harvey et al. (2022)

Experiment: yeast display, Sf9 membrane polyspecificity reagent, FACS + sequencing; frameworks hold sequencing errors
Method in brief: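 A nanobody's polyreactivity label depends on the gate it was sorted from. Yeast display cells were stained with 10% biotinylated, detergent-solubilized Sf9 membrane reagent for 1 hour at 4 °C, enriched on streptavidin microbeads and sorted by FACS. The low and high (top ~1%) gates were set on anti-HA fluorescence for expression and streptavidin fluorescence for reagent binding.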

Row | Sequence | polyreactivity (PSR sort gate)
1 | QVQLVESGGGLVQAGGSLSLSCAASGSILFTNAMGWYRQAPGKERELVAAISSGGSTYYADSVKGRFTISRDNAKNTVYLQMNSLKPEDTAVYYCAASDHYRWYVHRWEDPFYYWGQGTQVTLSS | low polyreactivity
2 | QVQLVESGGGLVQAGGSLRLSCAASGGPFFYYAMGWYRAAPGKAREWVAAITWSATDTYYADSVKGRFTISRDNAKNTVYIQMNSLKPEDTAVYYCNAAPIGSEVDYGGQGTQVTVSS | low polyreactivity
3 | QVQLVESGGGLVQAGGSLRLSSAASGRTFGVNAMGWYRQAPGKERELVASISWGGGSTYYADSVKGRFTISRDNAKNTVYLQMNSLKPEDTAVYFCNRAYVRYVPMNYWGQGTQVTVSS | high polyreactivity
4 | QVQLVESAGGLVQAGGSLRLSCAASGLIFARNSMGWYRQAPGKERELVAAISKRGGSTFYADSVKGRFTISRDNAKNTVYLQMNSLKPVDTAVYYWNARSSETWHGDYWGQGTQVTVSS | high polyreactivity
5 | QVQLVESGGGLVQAGGSLRLSCAASGSTFKFYGVGWYRQAPGKERQLVASITSSSGPTYYADSVKGRFTISRDNAKYTVYLQLNSLKPEDPAVYDCNKAWRRYWLRGDYWGQGKQVTVSS | low polyreactivity
6 | QFQLVESGGGLVQEGGSLRISCAASGSIFNEYAMGWYRQAPGKERELVAAISTSGDITYYADSVKGRFTISLDTAKNTVYLQMNSLKPEDTAVYYCAAKYSLLRQYNRLDYWGQGTQVTVSS | low polyreactivity
7 | QVQLQESGGGLVQEGGSLRLSCAASGNISPPADMGWYRQAPGKERELVASIGTGGTTNYADSVKGRFTISRDNAKNTVYLQMNSLQPDDTAVYYCAAVRYEYNPYDYWGQGTQVTVSS | low polyreactivity
8 | QVQLVESGGGLVQAGGILRLSCAASGGIFNRYSKGWYRQAPGKERELVAGITRSGGSTSYADSVKGRFTISRDNAKNTVYLQMNSLKPEDTAVYFCKKVAYYASSSSYRFGAYGYWGQGSQVTVSS | high polyreactivity
9 | QVQLVESGGGLVHAGGSLRLSCAASGSIFVWNAMGWYRQAPGKERELVARIRYSSNTYYADSVKGRFTISRDNAKNNVYLQMTSLKPEDTAVYYCAAGSTRYAGWTYNYWGQGTHVTVSS | high polyreactivity
10 | QVQLVESGGGLVQAGGSLRLSCAASGSIFEGYVMGWYRQAPGKERELVATISFSGGSTYYADSVKGRFTISRDNAKNTVYLQMTSLKPEDTAVYFCNALVYHTKGDYGYWGQGTQVTVSS | low polyreactivity
11 | QDHLVESGGGLVQAGGSLRLSCAASGRIFFGYAMGWYRQATGKERELVATISYNDTSTYYADSVKGRFTISRDNAKNTVYLQMNCLKPEDTAVNYCSKSLGAPASDVYWGQGTQVTVSS | low polyreactivity
12 | QVQLVESGGGLVQAGGSLRLSCAASGSIFDVNAMGWYRQAPGKERELVAAISQRGTRTYYADSVKGRFTISRDNAKNTVYLQMNSLKPEDTAVYYCNRGGWRQYDSWGQGTQVTVSS | high polyreactivity
13 | QVQLVESGGGLVQAGGSLRLSCAASGFIFDDNAMGWYRQAPGKERELVAAITSGGGTTYYADSVKGRFTISRDTAKNTVYLQMNSLKPEDTAVYYCNAVPSQHDEFDYWGQGTQVTVSS | low polyreactivity
14 | QVQLVESGGGLVQAGGSLRLSCAASGITIVNYVMGWYRQAPGKERELVAAISIGGGTYYADSVKGRFTISRDNAKNTVYLQMNSLKPEDTAVYYCNASYGGLSFYIGVYVTGYYYWGQGTQVTVSS | low polyreactivity
15 | QLQLVESGGGLVQAGGSLRLSCAASGYIFGWYAMGWYRQAPGKERELVATIDWSGDSTYYADSVKGRFTISRDNAKNTVYLQLNSLKPEATAVYYCAVGYSYYPSDEFDYWGQGTQVTVSS | low polyreactivity
16 | QVQLVESGGGLVQAGGSLRLSCAASGLTFVDNAMGWYRQAPGKESELVAAITKRGGRTYYADSVKGRFTISRDNAKNTFYLQMNSLKPEDTAVYYCARESGNDSSRRLDYWGQGTQVTVSS | low polyreactivity
17 | QVQLVESGGGLVQAGGSLRLSCAASGSTFRANAMGWYRQAPGKERELVAAISSGDSTNYADSVKGRFTISRDNAKKSVYLQMNSLKPEDTAVYYCAAVYTYYWWGSYGYWGQGTQVTVSS | low polyreactivity
18 | QVQLVESGGGLVQAGGSLRFSCAASGSIFITYAMGWYRQAPGKERELVAAISRSGGSTYYADSVKGRFTISRDNAKNTVYLQMNSLKPEDTAVYYCAAYPYSAGRYYYWGQGTQVTVSS | high polyreactivity
19 | QVQLQESAGGLVQAGGSLRLRCSASGYISCDASMGWYRQAPGKERELAASITKGSSTNYADSVKGRFTIRDNAKNTVYLQMNSLKPEDTSVCYCAVTYPYWGDYTYWGQGTQVTVSS | low polyreactivity
20 | QVQLVESGGGLVQAGGSLRLSCAASGFIFAWYAMGWYRQAPGKERELVAAITSSGTSTYYADSVKGRFTISRDNAKNTVYLQMNSLTPEDTAVYYCAAVTKRYLAYDYWGQGTQVTVSS | high polyreactivity
21 | QVQLVESGGGLVQAGGSLRLSCAASGFIFGYYAMGWYRQAPGKERELVAAITGGGSTYYADSVKGRFTISRDNAKNTVYLQMNSLKPEDTAVYDCNADYGDGEYDYWGQGTQVTVSS | low polyreactivity
22 | QVQLVESGGGLVQAGGSLRLSCAASGIIFYDYAMGWYRQAPGKERELVAAISSSGGRTYYADSVKGRFTISRDNAKNTVYLQMNSLNPEDTAFYYCATVSSIYRVRSTSIRYNYWGQGTQVTVSS | high polyreactivity

Row | Sequence | polyreactivity (PSR sort gate)
23 | QVQLVESGGGLVQAGGSLRLSCAASGRTFFPYAMGWYRPAPGKEREFVAAITKTDDSTYYADSVKGRFTISRDNAKNTVYLQMNSLKPEDTAVYYCNAGDTQIRFYYWGQGTQVTVSS | low polyreactivity
24 | QVQLVESGGGLVQAGGSLRLSCAASGFIFGYYAMGWYRQAPGKERELVAAISWSGGSTYYADSVKGRFTISRDKAKNTVYLQMNSLKPEDTAVYYCATASPSTRYGRLGDYWGQGTQVTVSS | low polyreactivity
25 | QVQLVESGGGLVQAGGSLRLSCAASGSILIYNAMGWYRQARGKERELVAAISTSGGSTYYADSVKGRFTISRDTAKNTVYLQMNSLKPEDTAVYYCAARAYPYGYWGQGTQVTVSS | low polyreactivity
26 | QVQLVESGGGLVQAGGSLRLSCAASGSTFDAYAMGWYRQAPGKERELVAPISWSGGGTTYADSVKGRFTISRDNAKNTVYLLMNSLKPEDTAVYYCNAKGSVRDFQDTLRPEGDYWGQGTQVTVSS | low polyreactivity
27 | QVQLLESGGGLVQAGGSLRLSCAASGSIFTEYAMGWYRQAPGKERELVAAITYSGGSTYYADSVKGRFTISRDNAKNTVYLQMHSLKPDDTAVYYCNADYRIYVAYYYWGQGTQVTVSS | low polyreactivity
28 | QFQLVESGGGLVQAGGSLLLSCAASGRTFDWYAMGWYRLAPGKERELVAGISGSSGRTYYADSVKGRFTISRDNAKNTVYLQMNSLKPEDTAVYYCAADFSFWKLVYYQSGRYDYWGQGTQVTVSS | high polyreactivity
29 | QVQLVESGGGLVQAGGSLRLSCAASGRTFGYYAMGWYRPAPGKEGELVAVITWSGDSTYYADSVKGRFTISRDNAKNTVYLQMNSLKPEDTAVYYCNADSGNAGTAYDDYDYWGQGTQVTVSS | low polyreactivity
30 | QVQLVESGGGLVQAGGSLRLSCAASGSTFYINAMGWYRQAPGKERELVADITVRGGNTYYADSVKGRFTISRDNAKNTVYLQMNSLKPEDTAVYYCNALLSGGRAGFDYWGQVTQVTVSS | high polyreactivity
31 | QVQLVESGGGLVQAGGSLRLSCAASGSIFSRYTMGWYRQAPGKERELVAAITSSGVSTYYADSVKGRFTISRDNAKNTVYLQMNSLKPEDTAVYYCAAYSVFRSYDYWGQGTQVTVSS | high polyreactivity
32 | QVQLVESGGGLVQAGGSLRLSCAASGFTFAVYVMGWYRQAPGKERELVATISFSVGSTYYADSVKGRFTISRDNAKNTVYLQMNSLKPEDTAVYDCNADPPPEYYPDKDNYWGQGTQVTVSS | low polyreactivity
33 | QVQLVESGGGLVQAGGSLRLSCAASGRTFNWYAMGWYRQAPGKERELVAAISYSGGGTYYADSVKGRFTISRDTAKNTVYLQMNSLKPEDTAVYYCAAETYYAPYDYWGQGTQVTVSS | high polyreactivity
34 | QVQLVESGGGLVQAGGSLRLSCAASGRTFYYYAMGWYRQAPGKERELVAGIDFSSGSTYYADSVKGRFTISRDNAKNTVYLQMNSLKPEDTAVYYCAAKWHVRGRGARYRYDYDYWGQGTQVTVSS | low polyreactivity
35 | QVQLVESGGGLVQAGGSLRLSCAASGLTFRKYAMGWYRQAPGKERELVAAITGSGGRTYYADSVKGRFTISRDNAKNTVYLQMNSLKPEDTAVYYCAADDYFHDDYCGQGTQVTVSS | high polyreactivity
36 | QVQLVESGGGLVQAGGSLRLSCAASGRIFRYYAMGWYRQAPGKERELVAAISTSGDTTYYADSVKGRFTISRDNAKNTVYLQMNSLKPEDTAVYYCAKPIAPARNAYPAYDYWGQGTQVTVSS | high polyreactivity
37 | QVQLVESGGGLVQAGGSLRLSCAASGRIFTHNAMGWYRQAPGKERELVAAISYSGVSTYYADSVKGRFTISRDNAKNTVYLQMNSLKPEDTAVYYCARDRWKWHYGYDYWGQGTQVTVSS | low polyreactivity
38 | QVQLVESGGGLVQAGGSLRLSCADSGSIFQYNTMGWYRQAPGKERELVADINGRGGSTYYADSVKGRFTISRDNAKNTVYLQMNSLKPEDTAVYYCAVEGVSTYLWTSYGYWGQGTQVTVSS | low polyreactivity
39 | QVQLVESGGGLVQAGGRLRLSCAASGFTLWGYAMGWYRQAPGKERELVASMSWSGGGTNYADSVKGRFTISRDNAKNTVYLQMNSLKPEDPAVYYCAAQYYTVSRYYGVERKFGYWGQGSQVTVSS | high polyreactivity
40 | QVQLVESGGGLVQAGGSLRLSCAASGRTFAYNAMGWYRPAPGKEREFVAGISRSGGSTYYADSVKGRFTISRDNAKNTVYLQMNSLKPEDTAVYYCAAQFYALPNVGTKYYSWGQGTQVTVSS | low polyreactivity
41 | QVQLVESGGGLVQAGGSLRLSCAASGSIFGGYAMGWYRQAPGKERELVAAISKTGGTTYYADSVKGRFTISRDNAKNTVYLQMNSLKPEDTAVYYCNAPKRYSGSAYGYGYWGQGTQVTVSS | high polyreactivity
42 | QVQLVESGGGLVQAGGSLRLSCAASGITVDYYVMGWYRQAPGKERELVASIDSGGRTKYADSVKGRFTISRDNAKNTVYLQMNILKPEDTAVYYCAARSYVFRSRWIRWPKYWGQGTQVTVSS | high polyreactivity
43 | QVQLVESGGGLVQAGGSLRLSCAASGRIFWYNALGWYRQAPGKEREVVAAISWRGSRTYYADSVKGRFTISRDNAKNTVYLQMNSLKPEETAVYYCAAVIKWTKDDYWGQGTQVTVSS | high polyreactivity
